# Assays:
# [1] = target: T1, Reb1 (Saccharomyces cerevisiae) (UniProt P21538); assay: ensemble FRET
# T1 sequence: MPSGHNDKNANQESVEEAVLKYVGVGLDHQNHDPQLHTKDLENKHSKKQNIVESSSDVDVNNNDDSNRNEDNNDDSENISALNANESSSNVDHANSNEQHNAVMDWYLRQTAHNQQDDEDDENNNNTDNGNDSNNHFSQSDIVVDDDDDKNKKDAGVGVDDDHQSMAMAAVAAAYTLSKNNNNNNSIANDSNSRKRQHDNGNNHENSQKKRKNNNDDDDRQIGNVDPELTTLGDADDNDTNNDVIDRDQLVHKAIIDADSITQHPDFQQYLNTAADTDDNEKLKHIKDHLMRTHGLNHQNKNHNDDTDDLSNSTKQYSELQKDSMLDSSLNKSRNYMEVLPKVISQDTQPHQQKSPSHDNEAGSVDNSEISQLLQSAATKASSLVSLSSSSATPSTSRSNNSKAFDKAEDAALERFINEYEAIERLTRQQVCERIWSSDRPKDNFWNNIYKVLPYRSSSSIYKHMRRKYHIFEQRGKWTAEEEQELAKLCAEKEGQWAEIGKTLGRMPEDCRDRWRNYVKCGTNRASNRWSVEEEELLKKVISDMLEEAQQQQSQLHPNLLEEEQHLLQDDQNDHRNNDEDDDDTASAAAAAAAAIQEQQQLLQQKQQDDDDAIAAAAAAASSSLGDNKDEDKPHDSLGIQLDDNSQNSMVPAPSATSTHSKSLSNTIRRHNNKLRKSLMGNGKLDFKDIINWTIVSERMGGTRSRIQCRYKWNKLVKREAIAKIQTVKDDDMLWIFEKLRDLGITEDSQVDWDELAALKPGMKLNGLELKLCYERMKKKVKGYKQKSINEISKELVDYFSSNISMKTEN
# [2] = target: Cbf1 (Saccharomyces cerevisiae) (UniProt P17106); assay: EMSA
# Chain of UniProt P17106 (P17106 whole entry): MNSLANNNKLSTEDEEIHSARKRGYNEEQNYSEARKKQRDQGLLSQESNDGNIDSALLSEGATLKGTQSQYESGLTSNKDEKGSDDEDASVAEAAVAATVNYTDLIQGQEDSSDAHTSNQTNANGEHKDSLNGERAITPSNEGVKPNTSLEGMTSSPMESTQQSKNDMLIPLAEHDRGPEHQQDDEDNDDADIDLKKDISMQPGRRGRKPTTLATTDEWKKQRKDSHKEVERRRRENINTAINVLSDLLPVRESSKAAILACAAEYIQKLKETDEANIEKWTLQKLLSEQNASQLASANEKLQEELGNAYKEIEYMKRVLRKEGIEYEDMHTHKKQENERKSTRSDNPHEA
# [3] = target: Cbf1 (Saccharomyces cerevisiae) (UniProt P17106); assay: ensemble FRET
substance,measurement,setting,value
601 Reb1p8 Cy3-proximal 207 bp nucleosome,K half,[1],0.75 nM
GCTTTGACCGGGTAACACGAACAGAAAGATGGAGGAGACCAATCAGTCAGTGAATCAGATGCTGATGAAGGCTGGGAAGATATTCCTGTCTACGTTAAAGCCTTTGCAGAGTTTGAATCAAAGAAAAGATTACAAAAAATTCGCCGACAGGAAGAAATAAAAAAGAGGACAGCTTTGGTTTGAAGCAAATATATATTATTGAAAAGC (double strand) [YNN1 Reb1p8 Cy3-proximal 207 bp nucleosome],K half,[1],1.5 nM
GCTTTGAGGTCACGTGACCAACAGAAAGATGGAGGAGACCAATCAGTCAGTGAATCAGATGCTGATGAAGGCTGGGAAGATATTCCTGTCTACGTTAAAGCCTTTGCAGAGTTTGAATCAAAGAAAAGATTACAAAAAATTCGCCGACAGGAAGAAATAAAAAAGAGGACAGCTTTGGTTTGAAGCAAATATATATTATTGAAAAGC (double strand) [YNN1 Cbf1p8 nucleosome],K half,[2],0.8 nM
same,K half,[3],1.5 nM

# From article PMC11760725
